In paper doi:10.1101/211250 (bioRxiv, 2017):
Non-standard residues stand in square brackets, D forms with d. No end group written: not given here. pS = N[C@@H](COP(=O)(O)O)C(=O)O

B11: FITC-labeled p-1 phosphorylated MCC peptide (peptide)
peptide: HTNET[pS]L
modifications: also: FITC label (position not given here)
B14: FITC-labeled p-3 phosphorylated RPS6KA2 peptide (peptide)
peptide: RLT[pS]TRL
modifications: also: FITC label (position not given here)

Experiments:
[1] = molecular target: FITC-labeled p-1 phosphorylated MCC peptide (human); assay: MST
[2] = molecular target: FITC-labeled p-3 phosphorylated RPS6KA2 peptide (human); assay: MST
[3] = molecular target: FITC-labeled p-6 phosphorylated TANC1 peptide (human); assay: MST
[4] = molecular target: FITC-labeled phosphomimetic RPS6KA2 peptide (p-3 Ser to Glu) (human) (UniProt Q15349); assay: MST
[5] = molecular target: FITC-labeled phosphomimetic TANC1 peptide (p-6 Ser to Glu) (human) (UniProt Q9C0D5); assay: MST
Scribble PDZ1 [6] = molecular target: T1, Scribble PDZ1 (human, UniProt Q14160 719-829); assay: ITC
Scribble PDZ1 K746A = Scribble PDZ1 K746A (human, UniProt Q14160 719-829, K746A); assay: ITC
Scribble PDZ1 R762A = Scribble PDZ1 R762A (human, UniProt Q14160 719-829, R762A); assay: ITC
Scribble PDZ1 R801A = Scribble PDZ1 R801A (human, UniProt Q14160 719-829, R801A); assay: ITC
[7] = molecular target: Scribble PDZ1 R762A/A743R (human, UniProt Q14160 719-829, R762A | A743R); assay: ITC
Scribble PDZ1 [8] = molecular target: T1, Scribble PDZ1; assay: MST
[9] = molecular target: B14; assay: MST
[10] = molecular target: B11; assay: MST

T1 sequence (Q14160 719-829): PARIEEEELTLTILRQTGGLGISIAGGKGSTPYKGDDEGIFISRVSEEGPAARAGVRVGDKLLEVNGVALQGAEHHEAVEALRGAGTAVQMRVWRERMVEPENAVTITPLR
Chain of Scribble PDZ1 R762A/A743R (Q14160 719-829 A743R/R762A): as the sequence (Q14160 719-829) above, with A25R, R44A counted along it
Chain of Scribble PDZ1 R762A (Q14160 719-829 R762A): as the sequence (Q14160 719-829) above, with R44A counted along it
Chain of Scribble PDZ1 K746A (Q14160 719-829 K746A): as the sequence (Q14160 719-829) above, with K28A counted along it
Chain of Scribble PDZ1 R801A (Q14160 719-829 R801A): as the sequence (Q14160 719-829) above, with R83A counted along it
Chain of FITC-labeled phosphomimetic TANC1 peptide (p-6 Ser to Glu) (human) (Q9C0D5 whole entry, looked up, tested part not stated): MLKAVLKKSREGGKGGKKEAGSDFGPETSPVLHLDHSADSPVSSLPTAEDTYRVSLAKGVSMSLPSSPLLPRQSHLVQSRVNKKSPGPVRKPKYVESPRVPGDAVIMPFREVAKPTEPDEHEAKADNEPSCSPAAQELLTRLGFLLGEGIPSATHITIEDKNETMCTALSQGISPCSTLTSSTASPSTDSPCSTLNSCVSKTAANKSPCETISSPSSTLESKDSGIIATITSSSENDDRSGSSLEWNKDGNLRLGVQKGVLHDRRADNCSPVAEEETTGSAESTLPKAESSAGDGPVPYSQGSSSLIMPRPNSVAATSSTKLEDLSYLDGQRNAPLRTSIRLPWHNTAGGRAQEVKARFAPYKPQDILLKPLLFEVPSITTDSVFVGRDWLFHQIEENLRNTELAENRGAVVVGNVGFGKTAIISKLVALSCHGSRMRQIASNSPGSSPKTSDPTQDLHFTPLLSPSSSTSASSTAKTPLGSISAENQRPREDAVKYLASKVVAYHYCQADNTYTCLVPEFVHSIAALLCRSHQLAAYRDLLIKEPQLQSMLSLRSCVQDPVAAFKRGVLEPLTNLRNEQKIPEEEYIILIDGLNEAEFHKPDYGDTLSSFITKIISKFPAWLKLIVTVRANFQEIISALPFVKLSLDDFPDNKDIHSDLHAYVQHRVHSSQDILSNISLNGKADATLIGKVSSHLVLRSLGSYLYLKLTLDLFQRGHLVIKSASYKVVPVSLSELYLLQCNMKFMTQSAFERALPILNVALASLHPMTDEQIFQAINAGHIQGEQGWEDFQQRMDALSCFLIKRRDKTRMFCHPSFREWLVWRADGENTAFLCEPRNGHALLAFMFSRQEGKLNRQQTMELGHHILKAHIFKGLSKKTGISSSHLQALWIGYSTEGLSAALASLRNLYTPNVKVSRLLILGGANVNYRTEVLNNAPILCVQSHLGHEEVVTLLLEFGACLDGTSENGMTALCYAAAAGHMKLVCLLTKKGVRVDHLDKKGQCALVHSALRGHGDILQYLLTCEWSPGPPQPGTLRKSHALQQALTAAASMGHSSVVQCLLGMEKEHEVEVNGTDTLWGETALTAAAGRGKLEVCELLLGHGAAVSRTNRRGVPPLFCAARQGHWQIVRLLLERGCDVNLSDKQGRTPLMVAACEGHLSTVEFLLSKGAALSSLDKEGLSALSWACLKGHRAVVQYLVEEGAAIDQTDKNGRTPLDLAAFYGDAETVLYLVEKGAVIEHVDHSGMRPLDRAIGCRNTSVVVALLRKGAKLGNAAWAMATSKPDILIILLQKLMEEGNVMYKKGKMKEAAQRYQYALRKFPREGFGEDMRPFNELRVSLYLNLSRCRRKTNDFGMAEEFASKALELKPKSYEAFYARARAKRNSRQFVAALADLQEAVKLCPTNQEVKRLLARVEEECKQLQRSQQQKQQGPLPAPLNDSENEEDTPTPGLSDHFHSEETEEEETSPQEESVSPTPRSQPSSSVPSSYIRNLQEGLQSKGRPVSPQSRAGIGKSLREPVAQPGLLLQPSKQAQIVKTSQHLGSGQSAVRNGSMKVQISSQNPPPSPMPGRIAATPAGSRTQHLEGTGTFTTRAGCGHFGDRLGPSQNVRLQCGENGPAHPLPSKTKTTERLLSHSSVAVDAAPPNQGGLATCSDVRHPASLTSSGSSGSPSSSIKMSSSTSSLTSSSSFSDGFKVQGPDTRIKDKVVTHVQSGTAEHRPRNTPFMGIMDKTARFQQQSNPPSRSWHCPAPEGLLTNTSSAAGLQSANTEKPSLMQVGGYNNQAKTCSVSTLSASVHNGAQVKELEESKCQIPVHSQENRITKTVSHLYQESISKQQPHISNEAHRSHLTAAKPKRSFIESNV
Chain of FITC-labeled phosphomimetic RPS6KA2 peptide (p-3 Ser to Glu) (human) (Q15349 whole entry, looked up, tested part not stated): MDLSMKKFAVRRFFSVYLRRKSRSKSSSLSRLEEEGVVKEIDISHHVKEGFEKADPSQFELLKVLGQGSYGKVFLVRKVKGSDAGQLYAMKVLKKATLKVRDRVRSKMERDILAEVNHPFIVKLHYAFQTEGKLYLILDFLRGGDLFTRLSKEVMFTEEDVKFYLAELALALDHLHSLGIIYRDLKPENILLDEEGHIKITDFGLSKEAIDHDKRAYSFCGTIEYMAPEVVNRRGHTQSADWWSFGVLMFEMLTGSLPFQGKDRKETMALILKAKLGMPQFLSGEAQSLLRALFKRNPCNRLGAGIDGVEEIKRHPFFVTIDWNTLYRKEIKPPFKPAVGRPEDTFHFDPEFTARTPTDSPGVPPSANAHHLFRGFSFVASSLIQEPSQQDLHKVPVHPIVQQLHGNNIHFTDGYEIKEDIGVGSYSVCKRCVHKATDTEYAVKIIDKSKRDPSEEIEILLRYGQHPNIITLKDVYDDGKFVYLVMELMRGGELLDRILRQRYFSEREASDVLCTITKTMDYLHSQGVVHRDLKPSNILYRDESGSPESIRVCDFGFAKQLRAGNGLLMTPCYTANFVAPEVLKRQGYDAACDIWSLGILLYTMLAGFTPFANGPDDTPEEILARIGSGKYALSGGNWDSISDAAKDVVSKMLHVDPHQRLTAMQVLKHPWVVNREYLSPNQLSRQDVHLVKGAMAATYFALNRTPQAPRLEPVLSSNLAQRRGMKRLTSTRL

DLG1 PDZ2 (domain or fragment)
fold lower affinity than for the unphosphorylated peptide [1]: 9 fold | fold higher affinity than for the unphosphorylated peptide [2]: 1.3 fold | fold lower affinity than for the unphosphorylated peptide [3]: 2.9 fold | fold higher affinity than for the unphosphorylated peptide [4]: 7 fold | fold lower affinity than for the unphosphorylated peptide [5]: 2.4 fold

B1: unphosphorylated RPS6KA2 peptide (MKRLTSTRL-coo-) (peptide)
peptide: MKRLTSTRL-OH
binding result (Scribble PDZ1 [6]): binds | binding result (Scribble PDZ1 K746A): binds | binding result (Scribble PDZ1 R762A): binds | binding result (Scribble PDZ1 R801A): binds | binding result [7]: binds

B2: p-1 phosphorylated MCC peptide (RPHTNETpSL-coo-) (peptide)
peptide: RPHTNET[pS]L-OH
modifications: N-terminus assumed
SMILES: CC(C)C[C@H](NC(=O)[C@H](COP(=O)(O)O)NC(=O)[C@@H](NC(=O)[C@H](CCC(=O)O)NC(=O)[C@H](CC(N)=O)NC(=O)[C@@H](NC(=O)[C@H](Cc1c[nH]cn1)NC(=O)[C@@H]1CCCN1C(=O)[C@@H](N)CCCNC(=N)N)[C@@H](C)O)[C@@H](C)O)C(=O)O
fold lower KD than for the unphosphorylated peptide (Scribble PDZ1 [6]): 2 fold | binding result (Scribble PDZ1 R762A): binds | binding result [7]: binds

B3: p-3 phosphorylated RPS6KA2 peptide (MKRLTpSTRL-coo-) (peptide)
peptide: MKRLT[pS]TRL-OH
modifications: N-terminus assumed
SMILES: CSCC[C@H](N)C(=O)N[C@@H](CCCCN)C(=O)N[C@@H](CCCNC(=N)N)C(=O)N[C@@H](CC(C)C)C(=O)N[C@H](C(=O)N[C@@H](COP(=O)(O)O)C(=O)N[C@H](C(=O)N[C@@H](CCCNC(=N)N)C(=O)N[C@@H](CC(C)C)C(=O)O)[C@@H](C)O)[C@@H](C)O
fold lower KD than for the unphosphorylated peptide (Scribble PDZ1 [6]): 5 fold | binding result (Scribble PDZ1 K746A): binds | binding result (Scribble PDZ1 R762A): binds | binding result (Scribble PDZ1 R801A): binds | binding result [7]: binds

B4: FITC-labelled phosphorylated RPS6KA1 peptide (S732, p-3) (peptide)
peptide: VRKLP[pS]TTL
modifications: also: FITC label, position not given here
Kd (Scribble PDZ1 [8]): 390 nM

B5: FITC-labeled p-6 phosphorylated TANC1 peptide (peptide)
peptide: KR[pS]FIESNV
modifications: also: FITC label, position not given here
binding result (Scribble PDZ1 [8]): binds

B6: FITC-labeled phosphomimetic RPS6KA2 peptide (p-3 Ser to Glu) (peptide)
peptide: RLTETRL
modifications: also: FITC label, position not given here
binding result (Scribble PDZ1 [8]): binds

B7: FITC-labelled unphosphorylated RPS6KA1 peptide (VRKLPSTTL-coo-) (peptide)
peptide: VRKLPSTTL-OH
modifications: also: FITC label, position not given here
Kd (Scribble PDZ1 [8]): 1000 nM

B8: FITC-labeled unphosphorylated TANC1 peptide (KRSFIESNV-coo-) (peptide)
peptide: KRSFIESNV-OH
modifications: also: FITC label, position not given here
binding result (Scribble PDZ1 [8]): binds

B9: FITC-labeled unphosphorylated MCC peptide (HTNETSL-coo-) (peptide)
peptide: HTNETSL-OH
modifications: also: FITC label, position not given here
binding result (Scribble PDZ1 [8]): binds

B10: FITC-labeled unphosphorylated RPS6KA2 peptide (RLTSTRL-coo-) (peptide)
peptide: RLTSTRL-OH
modifications: also: FITC label, position not given here
binding result (Scribble PDZ1 [8]): binds

B11
binding result (Scribble PDZ1 [8]): binds

B12: Shank1 PDZ (domain or fragment)
chain: TVLLQKKDSEGFGFVLRGAKAQTPIEEFTPTPAFPALQYLESVDEGGVAWRAGLRMGDFLIEVNGQNVVKVGHRQVVNMIRQGGNTLMVKVVMVT
fold lower affinity than for the unphosphorylated peptide [9]: 3.6 fold | fold lower affinity than for the unphosphorylated peptide [10]: 3 fold

B13: unphosphorylated MCC peptide (RPHTNETSL-coo-) (peptide)
peptide: RPHTNETSL-OH
binding result (Scribble PDZ1 [6]): binds | binding result (Scribble PDZ1 R762A): binds | binding result [7]: binds

B14
binding result (Scribble PDZ1 [8]): binds
